We go through one molecule from US20170129954A1 (PROTHENA BIOSCIENCES, published 2017).

Where a chain is given by its changes, count along the chain named.

Assay [1] addresses T1, combination of human MCAM domains 1 and 2 (amino acids 19-242) hFc (human, UniProt P43121 19-242).
T1 construct: One of the various MCAMhFc domains captured on anti-human IgG Fc biosensors; also called combination of domains 1 and 2; MCAMhFc domain; not shown: human IgG Fc (hFc)
T1 sequence: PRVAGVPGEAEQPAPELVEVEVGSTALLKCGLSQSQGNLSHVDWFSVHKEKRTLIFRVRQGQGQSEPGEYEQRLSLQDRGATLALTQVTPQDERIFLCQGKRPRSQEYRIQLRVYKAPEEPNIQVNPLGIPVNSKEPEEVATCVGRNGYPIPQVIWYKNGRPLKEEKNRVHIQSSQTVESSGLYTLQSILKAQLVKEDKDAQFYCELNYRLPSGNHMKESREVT
Description: ForteBio BLI, MCAMhFc domains on anti-human IgG Fc biosensors. An excerpt:
The following protocol was used: ForteBio anti-human IgG Fc biosensors were used to immobilize various MCAMhFc domains including full length MCAMhFc protein on to biosensor surface. […] After loading these samples into a black 96 well plate, the Octet Red was programmed as follows: 60 seconds for baseline #1; 180 seconds for loading various domains; 60 seconds for baseline #2; 180 seconds for association of antibody to domain; and 240 seconds for dissociation of antibody from domain.
1. MCAMhFc final concentration @ 5 ug/ml [0329] […] 3. ForteBio anti-human IgG Fc Capture (AHC) biosensors for kinetics experiments, cat #18-5060 [0331] 4. Block 96 well plate from Greiner Bio-one, cat #655209 [0332] 5. ForteBio Octet Red machine [0333] 6. Fresh tissue culture medium, DMEM with 20% FCS, was used as buffer for dilution The results from these analyses are as follows.
For orientation: In BLI a coated tip is dipped into the sample, and binding shifts an interference pattern.

Assay [2] has as its target T2, human MCAM C272A mutant (shotgun mutagenesis library, on BHK cells) (human, UniProt P43121 24-646).
T2 chain: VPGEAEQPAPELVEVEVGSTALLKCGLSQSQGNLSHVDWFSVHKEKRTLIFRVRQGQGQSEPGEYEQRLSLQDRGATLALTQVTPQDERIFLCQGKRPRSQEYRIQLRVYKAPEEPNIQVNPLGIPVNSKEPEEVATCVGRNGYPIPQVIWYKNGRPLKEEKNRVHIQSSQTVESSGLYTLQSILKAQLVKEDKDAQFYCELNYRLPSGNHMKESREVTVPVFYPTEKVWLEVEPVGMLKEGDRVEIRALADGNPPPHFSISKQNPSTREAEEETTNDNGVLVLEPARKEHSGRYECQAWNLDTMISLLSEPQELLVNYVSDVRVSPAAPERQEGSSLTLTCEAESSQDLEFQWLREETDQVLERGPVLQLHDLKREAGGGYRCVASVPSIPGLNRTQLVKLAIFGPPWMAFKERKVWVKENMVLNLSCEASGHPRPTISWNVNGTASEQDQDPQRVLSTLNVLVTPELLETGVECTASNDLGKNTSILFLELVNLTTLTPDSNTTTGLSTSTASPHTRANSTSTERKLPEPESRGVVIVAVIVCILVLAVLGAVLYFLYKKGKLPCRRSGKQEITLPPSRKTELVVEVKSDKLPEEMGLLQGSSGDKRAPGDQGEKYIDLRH
Description: shotgun mutagenesis library, immunofluorescence on BHK cells, 0.5 µg/mL antibody. As for the experimental part:
(§1) Secondary antibodies from Jackson ImmunoResearch were used at 1:400 for MAb and sera detection.
(§2) The mutation library was assayed for surface expression (mouse sera binding) and monoclonal antibody binding, in triplicate. Each raw data point was background-subtracted and normalized to the wild type MCAM reactivity values. The mean monoclonal antibody binding value for each clone is plotted as a function of its mean surface expression value (FIG. 1, gray diamonds). Thresholds of <30% monoclonal antibody reactivity and >50% mouse sera binding were applied to identify clones (FIG. 1, black diamonds) that were negative for monoclonal antibody binding but positive for surface expression.

The target of assay [3] is T3, human MCAM C320A mutant (shotgun mutagenesis library, on BHK cells) (human, UniProt P43121 24-646).
T3 chain: T2 chain with A249C, C297A
Described as above. As for the experimental part:
as §1, §2

For assay [4], the target named is T4, human MCAM Y318A mutant (shotgun mutagenesis library, on BHK cells) (human, UniProt P43121 24-646).
T4 chain: T2 chain with A249C, Y295A
The assay is described as above. As for the experimental part:
as §1, §2

B1: mouse anti-human MCAM monoclonal antibody clone 1749.1.3 (antibody, V domains shown)
VH: DVKLVESGGDLVKPGGSLKLSCAASGFTFSSYIMSWVRQTPEKRLEWVATISSGGSSTYYPDSVKGRFTISRDNAKNTLYLQMSSLKSEDTAMYYCTRDDDYDVKVFAYWGQGTLVTVSA
VL: DIVMSQSPSSLAVSAGEKVTMNCKSSRSLLNSRIRKNYLAWYQQKPGQSPKLLIYWASTRESGVPDRFTGSGSGTDFTLTISSVQAEDLAVYYCKQSYNLLTFGAGTKLELK
notes: Mouse hybridoma monoclonal antibody; also called m1749
For the molecule B1, the binding result in assay [1] was “no binding (tested: 5 ug/ml)”; in assay [2] it was “no binding (tested: <30% WT)”; in assay [3], “no binding (tested: <30% WT)”; in assay [4], “no binding (tested: <30% WT)”.
